# Laboratory results taken from the supplement of paper PMC10724198.
# ± gives the standard deviation of the averaged measurements.
# Experiments:
# [1] = tested on: Saccharomyces cerevisiae; assay: protein stability index of tFT-peptide fusion (C-terminal peptide) (PSI (0-1 scale)); higher = more stable (slower turnover)
# Description: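 MPS profiling in S. cerevisiae of the tFT-X12 degron library: putative degron peptides plus stable controls, 12 aa, fused to the C-terminus of a sfGFP-mCherry timer. Cells are FACS-sorted into 8 mCherry/sfGFP bins and deep-sequenced. PSI runs from 0 (unstable) to 1 (stable). Backgrounds are wild type, das1Δ and doa10Δ at 30 °C, and wild type, das1Δ, cdc34-1 and cdc53-1 at 37 °C; 2-3 technical replicates each.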
# [2] = tested on: Saccharomyces cerevisiae; assay: as above; conditions: genetic background: wild type; temperature: 30 C
# [3] = genetic background: cdc34-1, temperature: 37 C
# [4] = genetic background: cdc53-1, temperature: 37 C
# [5] = genetic background: das1 deletion, temperature: 30 C
# [6] = genetic background: das1 deletion, temperature: 37 C
# [7] = genetic background: doa10 deletion, temperature: 30 C
# [8] = genetic background: wild type, temperature: 30 C
# [9] = genetic background: wild type, temperature: 37 C
# 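Further: PSI is a weighted mean of sequencing reads over stability bins, variants kept only with over 10 reads, mCherry proximal and sfGFP distal, peptide attached via GGGS linker.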
sequence,measurement,setting,value
FFSQLFLEIVAA,protein stability index,[1]; [3],0.0642 ± 0.024
same,protein stability index,[1]; [4],0.0709 ± 0.031
same,protein stability index,[1]; [5],0.179 ± 0.03
same,protein stability index,[1]; [6],0.196 ± 0.011
same,protein stability index,[1]; [7],0.14 ± 0.018
same,protein stability index,[1]; [8],0.175 ± 0.029
same,protein stability index,[1]; [9],0.171 ± 0.027
same,protein stability index,[2],0.257 ± 0.031
FFVFSFVLFFPL,protein stability index,[1]; [3],0.347 ± 0.0076
same,protein stability index,[1]; [4],0.427 ± 0.054
same,protein stability index,[1]; [5],0.305 ± 0.046
same,protein stability index,[1]; [6],0.456 ± 0.025
same,protein stability index,[1]; [7],0.307 ± 0.006
same,protein stability index,[1]; [8],0.322 ± 0.029
same,protein stability index,[1]; [9],0.444 ± 0.022
same,protein stability index,[2],0.369 ± 0.049
FFVLGPVVMSIH,protein stability index,[1]; [3],0.278 ± 0.046
same,protein stability index,[1]; [4],0.383 ± 0.032
same,protein stability index,[1]; [5],0.285 ± 0.031
same,protein stability index,[1]; [6],0.423 ± 0.02
same,protein stability index,[1]; [7],0.2657 ± 0.0021
same,protein stability index,[1]; [8],0.266 ± 0.038
same,protein stability index,[1]; [9],0.4054 ± 0.0027
same,protein stability index,[2],0.3849 ± 0.0033
FFVYFFLLLFWF,protein stability index,[1]; [3],0.171 ± 0.015
same,protein stability index,[1]; [4],0.0838 ± 0.023
same,protein stability index,[1]; [5],0.213 ± 0.029
same,protein stability index,[1]; [6],0.233 ± 0.027
same,protein stability index,[1]; [7],0.272 ± 0.028
same,protein stability index,[1]; [8],0.188 ± 0.015
same,protein stability index,[1]; [9],0.196 ± 0.0034
same,protein stability index,[2],0.208 ± 0.0049
FGARCSLSPLVT,protein stability index,[1]; [3],0.7249 ± 0.0062
same,protein stability index,[1]; [4],0.753 ± 0.017
same,protein stability index,[1]; [5],0.618 ± 0.014
same,protein stability index,[1]; [6],0.7463 ± 0.0025
same,protein stability index,[1]; [7],0.639 ± 0.035
same,protein stability index,[1]; [8],0.652 ± 0.019
same,protein stability index,[1]; [9],0.6977 ± 0.0039
same,protein stability index,[2],0.547 ± 0.1
FGCLFILRCSFL,protein stability index,[1]; [3],0.429 ± 0.047
same,protein stability index,[1]; [4],0.487 ± 0.00067
same,protein stability index,[1]; [5],0.349 ± 0.035
same,protein stability index,[1]; [6],0.5384 ± 0.00075
same,protein stability index,[1]; [7],0.29 ± 0.0031
same,protein stability index,[1]; [8],0.304 ± 0.026
same,protein stability index,[1]; [9],0.4966 ± 0.0043
same,protein stability index,[2],0.422 ± 0.0099
FGKGRSLLLVFS,protein stability index,[1]; [3],0.548 ± 0.02
same,protein stability index,[1]; [4],0.597 ± 0.022
same,protein stability index,[1]; [5],0.378 ± 0.044
same,protein stability index,[1]; [6],0.582 ± 0.0092
same,protein stability index,[1]; [7],0.347 ± 0.015
same,protein stability index,[1]; [8],0.395 ± 0.013
same,protein stability index,[1]; [9],0.5765 ± 0.0039
same,protein stability index,[2],0.475 ± 0.016
FGRAVWSRFCIV,protein stability index,[1]; [3],0.604 ± 0.044
same,protein stability index,[1]; [4],0.735 ± 0.029
same,protein stability index,[1]; [5],0.601 ± 0.0099
same,protein stability index,[1]; [6],0.736 ± 0.0076
same,protein stability index,[1]; [7],0.13 ± 0.015
same,protein stability index,[1]; [8],0.128 ± 0.03
same,protein stability index,[1]; [9],0.177 ± 0.032
same,protein stability index,[2],0.172 ± 0.064
FGVLLLFLFFLP,protein stability index,[1]; [3],0.347 ± 0.0038
same,protein stability index,[1]; [4],0.444 ± 0.02
same,protein stability index,[1]; [5],0.337 ± 0.022
same,protein stability index,[1]; [6],0.4673 ± 0.0036
same,protein stability index,[1]; [7],0.322 ± 0.0086
same,protein stability index,[1]; [8],0.323 ± 0.0085
same,protein stability index,[1]; [9],0.427 ± 0.0068
same,protein stability index,[2],0.413 ± 0.041
FHRSVVRLWLRN,protein stability index,[1]; [3],0.49 ± 0.06
same,protein stability index,[1]; [4],0.619 ± 0.024
same,protein stability index,[1]; [5],0.604 ± 0.02
same,protein stability index,[1]; [6],0.679 ± 0.0092
same,protein stability index,[1]; [7],0.114 ± 0.0044
same,protein stability index,[1]; [8],0.104 ± 0.031
same,protein stability index,[1]; [9],0.181 ± 0.066
same,protein stability index,[2],0.301 ± 0.041
FLAPPFLPPPPA,protein stability index,[1]; [3],0.693 ± 0.021
same,protein stability index,[1]; [4],0.7351 ± 0.00039
same,protein stability index,[1]; [5],0.672 ± 0.014
same,protein stability index,[1]; [6],0.758 ± 0.016
same,protein stability index,[1]; [7],0.683 ± 0.02
same,protein stability index,[1]; [8],0.705 ± 0.011
same,protein stability index,[1]; [9],0.737 ± 0.015
same,protein stability index,[2],0.748 ± 0.016
FLCLLASFVVCF,protein stability index,[1]; [3],0.3271 ± 0.00067
same,protein stability index,[1]; [4],0.312 ± 0.008
same,protein stability index,[1]; [5],0.281 ± 0.039
same,protein stability index,[1]; [6],0.384 ± 0.029
same,protein stability index,[1]; [7],0.249 ± 0.0083
same,protein stability index,[1]; [8],0.285 ± 0.028
same,protein stability index,[1]; [9],0.336 ± 0.015
same,protein stability index,[2],0.363 ± 0.008
FLFFWRASLFFW,protein stability index,[1]; [3],0.116 ± 0.0025
same,protein stability index,[1]; [4],0.164 ± 0.0095
same,protein stability index,[1]; [5],0.183 ± 0.029
same,protein stability index,[1]; [6],0.278 ± 0.027
same,protein stability index,[1]; [7],0.178 ± 0.018
same,protein stability index,[1]; [8],0.15 ± 0.029
same,protein stability index,[1]; [9],0.191 ± 0.022
same,protein stability index,[2],0.229 ± 0.023
FLIYMFRHCFFH,protein stability index,[1]; [3],0.537 ± 0.071
same,protein stability index,[1]; [4],0.626 ± 0.034
same,protein stability index,[1]; [5],0.593 ± 0.015
same,protein stability index,[1]; [6],0.676 ± 0.039
same,protein stability index,[1]; [7],0.268 ± 0.013
same,protein stability index,[1]; [8],0.278 ± 0.028
same,protein stability index,[1]; [9],0.393 ± 0.018
same,protein stability index,[2],0.345 ± 0.029
FLMCVFFLCFSN,protein stability index,[1]; [3],0.304 ± 0.031
same,protein stability index,[1]; [4],0.41 ± 0.051
same,protein stability index,[1]; [5],0.308 ± 0.024
same,protein stability index,[1]; [6],0.472 ± 0.015
same,protein stability index,[1]; [7],0.208 ± 0.0021
same,protein stability index,[1]; [8],0.22 ± 0.019
same,protein stability index,[1]; [9],0.325 ± 0.029
same,protein stability index,[2],0.34 ± 0.028
FLSLPLFILFLS,protein stability index,[1]; [3],0.229 ± 0.036
same,protein stability index,[1]; [4],0.232 ± 0.041
same,protein stability index,[1]; [5],0.283 ± 0.029
same,protein stability index,[1]; [6],0.39 ± 0.02
same,protein stability index,[1]; [7],0.1217 ± 0.00068
same,protein stability index,[1]; [8],0.0821 ± 0.013
same,protein stability index,[1]; [9],0.119 ± 0.0033
same,protein stability index,[2],0.132 ± 0.014
FLSLSFLLLHFP,protein stability index,[1]; [3],0.398 ± 0.018
same,protein stability index,[1]; [4],0.39044 ± 0.00026
same,protein stability index,[1]; [5],0.385 ± 0.04
same,protein stability index,[1]; [6],0.535 ± 0.0059
same,protein stability index,[1]; [7],0.543 ± 0.017
same,protein stability index,[1]; [8],0.434 ± 0.041
same,protein stability index,[1]; [9],0.479 ± 0.005
same,protein stability index,[2],0.471 ± 0.064
FLVLFYCTFWVR,protein stability index,[1]; [3],0.162 ± 0.0078
same,protein stability index,[1]; [4],0.242 ± 0.032
same,protein stability index,[1]; [5],0.222 ± 0.019
same,protein stability index,[1]; [6],0.3245 ± 0.0025
same,protein stability index,[1]; [7],0.197 ± 0.006
same,protein stability index,[1]; [8],0.211 ± 0.042
same,protein stability index,[1]; [9],0.349 ± 0.071
same,protein stability index,[2],0.329 ± 0.089
FLVPLSPMLLSA,protein stability index,[1]; [3],0.446 ± 0.011
same,protein stability index,[1]; [4],0.451 ± 0.005
same,protein stability index,[1]; [5],0.375 ± 0.031
same,protein stability index,[1]; [6],0.4942 ± 0.0011
same,protein stability index,[1]; [7],0.323 ± 0.012
same,protein stability index,[1]; [8],0.347 ± 0.019
same,protein stability index,[1]; [9],0.463 ± 0.014
same,protein stability index,[2],0.4 ± 0.019
FMCCFWFFWLGF,protein stability index,[1]; [3],0.522 ± 0.041
same,protein stability index,[1]; [4],0.518 ± 0.0095
same,protein stability index,[1]; [5],0.421 ± 0.024
same,protein stability index,[1]; [6],0.53 ± 0.0084
same,protein stability index,[1]; [7],0.451 ± 0.006
same,protein stability index,[1]; [8],0.438 ± 0.0098
same,protein stability index,[1]; [9],0.501 ± 0.0061
same,protein stability index,[2],0.459 ± 0.031
